In article PMC8167055:

Assays:
LC3B (Homo sapiens) = LC3B (Homo sapiens) (UniProt Q9GZQ8); conditions: cited from earlier work
[1] = target: LC3B fused with mCherry (microtubule-associated protein light chain 3) (human) (UniProt Q9GZQ8); test: ELISA; plate coated with 5 μg/ml mCherry-LC3B in PBS, blocked with BSA; serial dilutions of TPPP/p25 forms or SYN; detected by TPPP/p25 or SYN antibodies; apparent Kd from hyperbola with a single binding site

| Kd [1] [nM] | Substance | Kd (LC3B (Homo sapiens)) [nM] |
| --- | --- | --- |
| – | SQSTM1/p62 (from UniProt Q13501) | 1500 |
| 21.5 | Tubulin Polymerization Promoting Protein (TPPP/p25), human recombinant with hexaHis tag (from UniProt O94811 1-219) (natural protein; other documents disagree on this pair) | – |
